Data: patent US20040115763A1

Molecular target: secreted FLAG peptide-fused G6 polypeptide G6sec2 (produced with the pVL1393-F2G6sec2-derived recombinant virus) (human) (UniProt Q9BYG0)
Experiment: Western blotting with anti-FLAG antibody

strength of band (band of G6sec1 eluate defined as 1) (relative to G6sec1 = 1): 1.05
Substance: anti-FLAG peptide antibody (of YEAST AMINO-TERMINAL FLAG EXPRESSION KIT, manufactured by SIGMA)
